Data as given in patent publication US20100075326A1.
Where two headings read alike, the source gives them in different places. Blank lines part the entries; values can stand above or below the substance they belong to.

Legend:
[1] = target: LFA-1 I domain F265S, YS2H bait fused to Aga2 with C-terminal FLAG tag (yeast) (UniProt P20701); assay: YS2H: I domain mutant bait on the yeast surface, secreted scFv AL-57 prey with Myc tag; flow cytometry with anti-Myc antibody, 10 mM MgCl2, mean ± standard error of three measurements; Flag (bait) MFI 52±8
[2] = target: high affinity (HA) LFA-1 I domain K287C/K294C, YS2H bait fused to Aga2 with C-terminal FLAG tag (yeast) (UniProt P20701); assay: YS2H: I domain bait on the yeast surface (Aga2 fusion, Flag tag), secreted scFv prey with Myc tag; flow cytometry with anti-Myc antibody, mean ± standard error of three measurements; Flag (bait) MFI 85±7
[3] = target: wild-type LFA-1 I domain, YS2H bait fused to Aga2 with C-terminal FLAG tag (yeast) (UniProt P20701); assay: YS2H: I domain bait on the yeast surface (Aga2 fusion, Flag tag), secreted scFv prey with Myc tag; flow cytometry with anti-Myc antibody, mean ± standard error of three measurements; Flag (bait) MFI 79±1
[4] = target: LFA-1 I domain L295P, YS2H bait fused to Aga2 with C-terminal FLAG tag (yeast) (UniProt P20701); assay: YS2H as in the row 'Myc', but labelled without metal ions with 10 mM EDTA (row 'Myc+ EDTA'); Flag (bait) MFI 40±2
[5] = target: LFA-1 I domain F265S, YS2H bait fused to Aga2 with C-terminal FLAG tag (yeast) (UniProt P20701); assay: predicted from YS2H (flow cytometry of Myc and FLAG tags, Langmuir equation)
[6] = target: high affinity (HA) LFA-1 I domain K287C/K294C, YS2H bait fused to Aga2 with C-terminal FLAG tag (yeast) (UniProt P20701); assay: as above
[7] = target: LFA-1 I domain L295P, YS2H bait fused to Aga2 with C-terminal FLAG tag (yeast) (UniProt P20701); assay: as above
[8] = target: LFA-1 I domain F265S, YS2H bait fused to Aga2 with C-terminal FLAG tag (yeast) (UniProt P20701); assay: YS2H as in the row 'Myc', but labelled without metal ions with 10 mM EDTA (row 'Myc+ EDTA'); Flag (bait) MFI 52±8
[9] = target: LFA-1 I domain F265S, YS2H bait fused to Aga2 with C-terminal FLAG tag (yeast) (UniProt P20701); assay: predicted from YS2H (flow cytometry of Myc and FLAG tags, Langmuir equation); remark: listed apart in the source
[10] = target: LFA-1 I domain L295P, YS2H bait fused to Aga2 with C-terminal FLAG tag (yeast) (UniProt P20701); assay: YS2H: I domain mutant bait on the yeast surface, secreted scFv AL-57 prey with Myc tag; flow cytometry with anti-Myc antibody, 10 mM MgCl2, mean ± standard error of three measurements; Flag (bait) MFI 40±2
[11] = target: wild-type LFA-1 I domain, YS2H bait fused to Aga2 with C-terminal FLAG tag (yeast) (UniProt P20701); assay: YS2H: I domain bait on the yeast surface (Aga2 fusion, Flag tag), secreted scFv prey with Myc tag; flow cytometry, mean ± standard error of three measurements; paragraph 71 says goat polyclonal anti-murine antibody was the primary antibody for detecting TS1/22; Flag (bait) MFI 40±0.3
[12] = target: high affinity (HA) LFA-1 I domain K287C/K294C, YS2H bait fused to Aga2 with C-terminal FLAG tag (yeast) (UniProt P20701); assay: YS2H: I domain bait on the yeast surface (Aga2 fusion, Flag tag), secreted scFv prey with Myc tag; flow cytometry, mean ± standard error of three measurements; paragraph 71 says goat polyclonal anti-murine antibody was the primary antibody for detecting TS1/22; Flag (bait) MFI 44±2
[13] = target: the wild-type and HA I domain; assay: predicted from YS2H (flow cytometry of Myc and FLAG tags, Langmuir equation)
[14] = target: LFA-1 I domain F265S, soluble, refolded from E. coli (UniProt P20701); assay: SPR (Biacore), I domain injected over scFv AL-57 chip, 10 mM MgCl2
[15] = target: high affinity (HA) LFA-1 I domain K287C/K294C, soluble, refolded from E. coli (UniProt P20701); assay: as above
[16] = target: LFA-1 I domain L295P, soluble, refolded from E. coli (UniProt P20701); assay: as above

- MFI (anti-Myc) [1]: 32
- MFI (anti-Myc) [2]: 80
- MFI (anti-Myc) [3]: 12
- MFI (anti-Myc, with EDTA) [4]: 10
- Kd [5]: 237 nM
- Kd [6]: 151 nM
- Kd [7]: 440 nM
- MFI (anti-Myc, with EDTA) [8]: 15
- Kd [9]: 148 to 237 nM
- MFI (anti-Myc) [10]: 13
Substance: scFv AL-57, secreted YS2H prey with C-terminal Myc tag

- MFI (row 'Myc') [11]: 38
- MFI (row 'Myc') [12]: 40
- Kd [13]: 148 to 237 nM
Substance: scFv TS1/22, secreted YS2H prey with C-terminal Myc tag

- Kd [14]: 15.7 nM
- Kd [15]: 32.6 nM
- Kd [16]: 243 nM
Substance: scFv AL-57, soluble, refolded from E. coli
